Laboratory results published in article PMC4814116, “Design of Novel Relaxase Substrates Based on Rolling Circle Replicases for Bioconjugation to DNA Nanostructures”.

T1: TrwCR (N-terminal relaxase domain of TrwC) (UniProt Q47673 1-293)
T1 sequence: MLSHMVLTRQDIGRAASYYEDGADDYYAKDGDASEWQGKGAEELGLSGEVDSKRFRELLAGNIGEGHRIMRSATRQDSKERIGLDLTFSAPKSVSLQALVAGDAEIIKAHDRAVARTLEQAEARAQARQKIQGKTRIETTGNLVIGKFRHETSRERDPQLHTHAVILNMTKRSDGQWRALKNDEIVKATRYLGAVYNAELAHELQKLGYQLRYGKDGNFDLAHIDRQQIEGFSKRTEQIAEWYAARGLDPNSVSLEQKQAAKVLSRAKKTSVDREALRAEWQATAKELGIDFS

T2: TraIR (N-terminal domain of TraI) (plasmid RP4, UniProt Q00191 1-270)
T2 sequence: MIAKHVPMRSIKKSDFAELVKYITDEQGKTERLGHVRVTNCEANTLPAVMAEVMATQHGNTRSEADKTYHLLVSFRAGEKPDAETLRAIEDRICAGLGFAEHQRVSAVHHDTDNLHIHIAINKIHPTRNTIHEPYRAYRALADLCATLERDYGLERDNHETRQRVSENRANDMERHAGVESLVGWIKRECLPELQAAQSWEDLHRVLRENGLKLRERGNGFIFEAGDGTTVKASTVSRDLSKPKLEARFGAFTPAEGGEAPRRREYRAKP

T3: MobAR (minMobA) (plasmid RSF1010, UniProt P07112 1-186)
T3 sequence: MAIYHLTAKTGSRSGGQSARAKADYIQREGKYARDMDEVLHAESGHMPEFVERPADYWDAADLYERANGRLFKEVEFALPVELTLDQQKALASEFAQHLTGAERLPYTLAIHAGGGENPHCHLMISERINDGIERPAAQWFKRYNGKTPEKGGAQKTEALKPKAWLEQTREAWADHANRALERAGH


molecular target: T1, TrwCR (N-terminal relaxase domain of …); experiment: SDS-PAGE covalent complex; 5 mM Mg2+; text says product not detected; Covalent complex: 15 uM oligo, 37 C 1 h, 5 mM MgCl2, 15 uM EDTA; TrwCR 10 mM Tris pH 7.6, 375 mM NaCl; MobAR 25 mM Tris pH 8.0, 225 mM NaCl; TraIR 10 mM Tris pH 7.6, 225 mM NaCl. EMSA: 50 nM oligo, 10 mM Tris pH 7.6, 100 mM NaCl, 1 mM EDTA, RT 30 min. Gel filtration: 100 mM Tris pH 7.6, 200 mM NaCl, EDTA; details: protein: recombinant; hairpin

TATAGCCCAGATCGCACCGAAAGGTGCG (structured_DNA) [R388 R(1+27)] and GTCTATAGCCCAGATCGCACCGAAAGGTGCG (structured_DNA) [R388 R(4+27)] are the same in binding signal: 9.9 ± 3.2 % covalent complex for the first, 9.9 ± 3.9 % covalent complex for the second.

Binder ATAGCCCAGATCGCACCGAAAGGTGCG (structured_DNA) [R388 R(0+27)] has a binding signal of 5.8 ± 1.9 % covalent complex.

molecular target: T1, TrwCR (N-terminal relaxase domain of …); experiment: gel filtration; EDTA; Covalent complex: 15 uM oligo, 37 C 1 h, 5 mM MgCl2, 15 uM EDTA; TrwCR 10 mM Tris pH 7.6, 375 mM NaCl; MobAR 25 mM Tris pH 8.0, 225 mM NaCl; TraIR 10 mM Tris pH 7.6, 225 mM NaCl. EMSA: 50 nM oligo, 10 mM Tris pH 7.6, 100 mM NaCl, 1 mM EDTA, RT 30 min. Gel filtration: 100 mM Tris pH 7.6, 200 mM NaCl, EDTA; details: protein: recombinant; hairpin

CCGGTGCGTATTGTCTATAGCCCGCGCACCGG (structured_DNA) [R388 H(16+16)]: binds.
AACCGGCTAGGTGCGTATTGTCTATAGCCCACGCACCTAGCCGGTT (structured_DNA) [R388 H(23+23)]: binds.
AACCGGCTAGGTGCGTATTGTCTATAGCCCAGATCGCACCTAGCCGGTT (structured_DNA) [R388 H(23+26)]: binds.

molecular target: T2, TraIR (N-terminal domain of TraI); experiment: SDS-PAGE covalent complex; 5 mM Mg2+; Covalent complex: 15 uM oligo, 37 C 1 h, 5 mM MgCl2, 15 uM EDTA; TrwCR 10 mM Tris pH 7.6, 375 mM NaCl; MobAR 25 mM Tris pH 8.0, 225 mM NaCl; TraIR 10 mM Tris pH 7.6, 225 mM NaCl. EMSA: 50 nM oligo, 10 mM Tris pH 7.6, 100 mM NaCl, 1 mM EDTA, RT 30 min. Gel filtration: 100 mM Tris pH 7.6, 200 mM NaCl, EDTA; details: protein: recombinant

ACTTCACCTATCCTGCCCGGC (ssDNA) [RP4 WP(15+6)] gave a binding signal of 24.4 ± 5.7 % covalent complex.

same assay, conditions: protein: recombinant; hairpin

CTATCCTGCCCGGCTGGTGAAGGAAACTTCAC (structured_DNA) [RP4 RP(8+24)] and GTGAAGGAAACTTCACCTATCCTGCCCGGCTG (structured_DNA) [RP4 WP(24+8)] are within error of each other in binding signal: 23.7 ± 2.7 % covalent complex for the first, 21.3 ± 0.9 % covalent complex for the second.

molecular target: T3, MobAR (minMobA); experiment: as above; details: protein: recombinant; hairpin

Compared with GAGAAACCGGTAAGTGCGCCCTCCCCAGTTTCTC (structured_DNA) [RSF1010 HQ(18+16)], CCGGTTGAAAACCGGTAAGTGCGCCCTCCCC (structured_DNA) [RSF1010 WQ(23+7)] is higher in binding signal: 13.1 ± 4.2 % covalent complex for the first, 41.4 ± 1.3 % covalent complex for the second.

Compared with CAGTTTCTCGAAGAGAAACCGGTAAGTGCGCCCTCCC (structured_DNA) [RSF1010 WQ(30+7)], GAGAAACCGGTAAGTGCGCCCTCCCGATCAGTTTCTC (structured_DNA) [RSF1010 HQ(18+19)] is lower in binding signal: 43.9 ± 1.4 % covalent complex for the first, 9 ± 3.1 % covalent complex for the second.

molecular target: T1, TrwCR (N-terminal relaxase domain of …); experiment: as above; details: protein: recombinant

Compared with TATTGTCTATAGCCCACGCACC (ssDNA) [R388 R(8+14)], GGTGCGTATTGTCTATAGCCCAGATTTA (ssDNA) [R388 W(14+14)] is lower in binding signal: 30.2 ± 4.9 % covalent complex for the first, 19.8 ± 1.9 % covalent complex for the second.

same assay, conditions: protein: recombinant; hairpin

Compared with TATTGTCTATAGCCCAGATCGCACCGAAAGGTGCG (structured_DNA) [R388 R(8+27)], GGTGCGTATTGTCTATCGCACC (structured_DNA) [R388 H(14+8)] is lower in binding signal: 44.7 ± 1 % covalent complex for the first, 22.4 ± 5.7 % covalent complex for the second.

GCGCACCGAAAGGTGCGTATTGTCTATAGCCCAGATTTAAGGA (structured_DNA) [R388 W(25+18)] and GGTGCGTATTGTCTATAGCGCGCACC (structured_DNA) [R388 H(14+12)] are within error of each other in binding signal: 24.7 ± 2.1 % covalent complex for the first, 25.5 ± 3.1 % covalent complex for the second.

First: GGTGCGTATTGTCTATAGCCCAGCGCACC (structured_DNA) [R388 H(14+15)]
Second: TATTGTCTATAGCCCACGCACCGAAAGGTGCG (structured_DNA) [R388 R(8+24)]
The binding signal of the first is lower: 19.6 ± 1.4 % covalent complex for the first, 45.3 ± 6.6 % covalent complex for the second.

GGTGCGTATTGTCTATAGCCGCGCACC (structured_DNA) [R388 H(14+13)] and GGTGCGTATTGTCTATAGCGCACC (structured_DNA) [R388 H(14+10)] are within error of each other in binding signal: 23.3 ± 2.9 % covalent complex for the first, 23 ± 4.7 % covalent complex for the second.

GGTGCGTATTGTCTATAGCCCAGATCGCACC (structured_DNA) [R388 H(14+17)] and GGTGCGTATTGTCTATAGCCCGCGCACC (structured_DNA) [R388 H(14+14)] are within error of each other in binding signal: 22.3 ± 6.1 % covalent complex for the first, 26.8 ± 4.7 % covalent complex for the second.

molecular target: T1, TrwCR (N-terminal relaxase domain of …); experiment: gel filtration; EDTA; slight shift; Covalent complex: 15 uM oligo, 37 C 1 h, 5 mM MgCl2, 15 uM EDTA; TrwCR 10 mM Tris pH 7.6, 375 mM NaCl; MobAR 25 mM Tris pH 8.0, 225 mM NaCl; TraIR 10 mM Tris pH 7.6, 225 mM NaCl. EMSA: 50 nM oligo, 10 mM Tris pH 7.6, 100 mM NaCl, 1 mM EDTA, RT 30 min. Gel filtration: 100 mM Tris pH 7.6, 200 mM NaCl, EDTA; details: protein: recombinant; hairpin

ATTGTCTATAGCCCAGATCGCACCGAAAGGTGCG (structured_DNA) [R388 R(7+27)]: binds.
